{"source": "paper PMC6579858", "proteins": {"B1": {"name": "myelin oligodendrocyte glycoprotein (MOG): N31A (protein)", "parent chain": "MASLSRPSLPSCLCSFLLLLLLQVSSSYAGQFRVIGPRHPIRALVGDEVELPCRISPGKNATGMEVGWYRPPFSRVVHLYRNGKDQDGDQAPEYRGRTELLKDAIGEGKVTLRIRNVRFSDEGGFTCFFRDHSYQEEAAMELKVEDPFYWVSPGVLVLLAVLPVLLLQITVGLIFLCLQYRLRGKLRAEIENLHRTFDPHFLRVPCWKITLFVIVPVLGPLVALIICYNWLHRRLAGQFLEELRNPF"}, "B2": {"name": "myelin oligodendrocyte glycoprotein (MOG): N31D (protein)", "parent chain": "B1 parent chain"}}, "experiment": "FACS of transfected HeLa", "settings": "glycan lost; control: wild type MOG", "data": [{"protein": "B1", "values": [{"measurement": "expression_or_secretion", "value": "no change"}]}, {"protein": "B2", "values": [{"measurement": "expression_or_secretion", "value": "no change"}]}]}
